Source: patent US20250082753A1 (Hoffmann-La Roche, published 2025)

Molecular target: T1, CH2-CH3 AAA P329R CAR
T1 construct: Expressed on transduced primary human T cells (CD4+:CD8+ 1:1); also called CH2 CH3 AAA PR CAR
Assay: flow cytometry double staining of CH2-CH3 AAA P329R CAR T cells with 50 nM anti-PG VH3xVL1 huIgG-AF647 and 100 nM anti-AAA x FolR1 1+1 TCB Avi Biotin + BV421 streptavidin
Method: In order to assess if the P329G mutation and AAA mutations can be bound by the respective molecules simultaneously, a second staining was performed as follows (FIG. 12A). The cells were incubated with LIVE/DEAD™ Fixable Near-IR Dead (Invitrogen, #L34976) dye (1:1000 in DPBS) and 50 nM of anti-PG VH3×VL1 huIgG-AF647 for 20 minutes at 4° C.
Then the cells were washed twice with FACS-buffer. In a second step the cells were incubated with 100 nM of anti-AAA×FolR1-Avi-Biotin 1+1 TCB and 500 nM Fc_P329LALA (20 minutes at 4° C.). Fc_P329GLALA served as blocking molecule, to prevent binding of the anti-PG VH3×VL1 huIgG-AF647 to the PG mutation in the anti-AAA×FolR1-Avi-Biotin 1+1 TCB. After the incubation, the cells were washed twice with FACS-buffer. In a third step the cells were resuspended in BV421 Streptavidin (Biolegend, #405225) and 500 nM Fc_P329LALA (20 min, 4° C.). After another two washing steps, the cells were fixed (BD CytoFix, #554655) and analyzed on the FACS.

T1 sequence (chain, as listed by the source P329R P329R limits assumed): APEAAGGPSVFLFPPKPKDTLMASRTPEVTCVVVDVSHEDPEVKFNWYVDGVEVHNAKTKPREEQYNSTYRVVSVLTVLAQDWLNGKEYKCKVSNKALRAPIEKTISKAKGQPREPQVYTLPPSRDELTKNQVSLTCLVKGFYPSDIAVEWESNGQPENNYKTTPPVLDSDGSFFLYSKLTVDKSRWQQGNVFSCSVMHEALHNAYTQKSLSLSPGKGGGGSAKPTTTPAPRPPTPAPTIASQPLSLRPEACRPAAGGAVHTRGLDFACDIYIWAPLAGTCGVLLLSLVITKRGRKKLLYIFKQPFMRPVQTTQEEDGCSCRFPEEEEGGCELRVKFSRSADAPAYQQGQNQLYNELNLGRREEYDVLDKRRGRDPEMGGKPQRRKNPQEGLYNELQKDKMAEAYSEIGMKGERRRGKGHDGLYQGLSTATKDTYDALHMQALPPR

B1: Anti-P329G (VH3VL1) huIgG1 (antibody, V domains shown)
VH: EVQLVESGGGLVQPGGSLRLSCAASGFTFSRYWMNWVRQAPGKGLEWVGEITPDSSTINYAPSLKGRFTISRDNAKNSLYLQMNSLRAEDTAVYYCARPYDYGAWFASWGQGTLVTVSS
VL: QAVVTQEPSLTVSPGGTVTLTCRSSTGAVTTSNYANWVQEKPDHLFTGLIGGTNKRAPGTPARFSGSLLGGKAALTLSGAQPEDEAEYYCALWYSNHWVFGGGTKLTVL
notes: huIgG1; also called P1AE9957; anti-P329G VH3×VL1 AF647 labeled IgG
  binding result: no binding (tested: 50 nM)
